The assay has as its target T1, recombinant SSL7 (GL1 S. aureus Greenlane), wild type (Staphylococcus aureus).
T1 construct: also called rSSL7; SET1 GL1
The assay is described as follows: co-crystal structure.

B1: recombinant IgA Fc (Cys242 to Pro455 of human IgA1) (other)
chain: CHPRLSLHRPALEDLLLGSEANLTCTLTGLRDASGVTFTWTPSSGKSAVQGPPERDLCGCYSVSSVLPGCAEPWNHGKTFTCTAAYPESKTPLTATLSKSGNTFRPEVHLLPPPSEELALNELVTLTCLARGFSPKDVLVRWLQGSQELPREKYLTWASRQEPSQGTTTFAVTSILRVAAEDWKKGDTFSCMVGHEALPLAFTQKTIDRLAGKP
notes: range 242-455
As for B1, the binding result is “binds”.
